Laboratory results: IntAct's records for PubMed 17167421

B1: Synaptotagmin-2 (Rattus norvegicus (Rat)), P29101 (parent)
chain: MRNIFKRNQEPIVAPATTTATMPLAPAAPADNSTESTGTGESQEDMFAKLKDKFFNEINKIPLPPWALIAMAVVAGLLLLTCCFCICKKCCCKKKKNKKEKGKGMKNAMNMKDMKGGQDDDDAETGLTEGEGEGEEEKEPENLGKLQFSLDYDFQANQLTVGVLQAAELPALDMGGTSDPYVKVFLLPDKKKKYETKVHRKTLNPAFNETFTFKVPYQELGGKTLVMAIYDFDRFSKHDIIGEVKVPMNTVDLGQPIEEWRDLQGGEKEEPEKLGDICTSLRYVPTAGKLTVCILEAKNLKKMDVGGLSDPYVKIHLMQNGKRLKKKKTTVKKKTLNPYFNESFSFEIPFEQIQKVQVVVTVLDYDKLGKNEAIGKIFVGSNATGTELRHWSDMLANPRRPIAQWHSLKPEEEVDALLGKNK

Variants of: B1
Conditions: with bxb_clobo botB

Variant	effect of a mutation on the interaction
MRNIFKRNQEPIVAPATTTATMPLAPAAPADNSTESTGTGESQEDMAAKLKDKFFNEINKIPLPPWALIAMAVVAGLLLLTCCFCICKKCCCKKKKNKKEKGKGMKNAMNMKDMKGGQDDDDAETGLTEGEGEGEEEKEPENLGKLQFSLDYDFQANQLTVGVLQAAELPALDMGGTSDPYVKVFLLPDKKKKYETKVHRKTLNPAFNETFTFKVPYQELGGKTLVMAIYDFDRFSKHDIIGEVKVPMNTVDLGQPIEEWRDLQGGEKEEPEKLGDICTSLRYVPTAGKLTVCILEAKNLKKMDVGGLSDPYVKIHLMQNGKRLKKKKTTVKKKTLNPYFNESFSFEIPFEQIQKVQVVVTVLDYDKLGKNEAIGKIFVGSNATGTELRHWSDMLANPRRPIAQWHSLKPEEEVDALLGKNK [F47A]	disrupting interaction strength
MRNIFKRNQEPIVAPATTTATMPLAPAAPADNSTESTGTGESQEDMFAKLKDKFANEINKIPLPPWALIAMAVVAGLLLLTCCFCICKKCCCKKKKNKKEKGKGMKNAMNMKDMKGGQDDDDAETGLTEGEGEGEEEKEPENLGKLQFSLDYDFQANQLTVGVLQAAELPALDMGGTSDPYVKVFLLPDKKKKYETKVHRKTLNPAFNETFTFKVPYQELGGKTLVMAIYDFDRFSKHDIIGEVKVPMNTVDLGQPIEEWRDLQGGEKEEPEKLGDICTSLRYVPTAGKLTVCILEAKNLKKMDVGGLSDPYVKIHLMQNGKRLKKKKTTVKKKTLNPYFNESFSFEIPFEQIQKVQVVVTVLDYDKLGKNEAIGKIFVGSNATGTELRHWSDMLANPRRPIAQWHSLKPEEEVDALLGKNK [F55A]	disrupting interaction strength
MRNIFKRNQEPIVAPATTTATMPLAPAAPADNSTESTGTGESQEDMFAKAKDKFFNEINKIPLPPWALIAMAVVAGLLLLTCCFCICKKCCCKKKKNKKEKGKGMKNAMNMKDMKGGQDDDDAETGLTEGEGEGEEEKEPENLGKLQFSLDYDFQANQLTVGVLQAAELPALDMGGTSDPYVKVFLLPDKKKKYETKVHRKTLNPAFNETFTFKVPYQELGGKTLVMAIYDFDRFSKHDIIGEVKVPMNTVDLGQPIEEWRDLQGGEKEEPEKLGDICTSLRYVPTAGKLTVCILEAKNLKKMDVGGLSDPYVKIHLMQNGKRLKKKKTTVKKKTLNPYFNESFSFEIPFEQIQKVQVVVTVLDYDKLGKNEAIGKIFVGSNATGTELRHWSDMLANPRRPIAQWHSLKPEEEVDALLGKNK [L50A]	decreasing interaction strength
MRNIFKRNQEPIVAPATTTATMPLAPAAPADNSTESTGTGESQEDMFAKLKDKFFNKINKIPLPPWALIAMAVVAGLLLLTCCFCICKKCCCKKKKNKKEKGKGMKNAMNMKDMKGGQDDDDAETGLTEGEGEGEEEKEPENLGKLQFSLDYDFQANQLTVGVLQAAELPALDMGGTSDPYVKVFLLPDKKKKYETKVHRKTLNPAFNETFTFKVPYQELGGKTLVMAIYDFDRFSKHDIIGEVKVPMNTVDLGQPIEEWRDLQGGEKEEPEKLGDICTSLRYVPTAGKLTVCILEAKNLKKMDVGGLSDPYVKIHLMQNGKRLKKKKTTVKKKTLNPYFNESFSFEIPFEQIQKVQVVVTVLDYDKLGKNEAIGKIFVGSNATGTELRHWSDMLANPRRPIAQWHSLKPEEEVDALLGKNK [E57K]	disrupting interaction strength
MRNIFKRNQEPIVAPATTTATMPLAPAAPADNSTESTGTGESQEDMFAKLKDKAFNEINKIPLPPWALIAMAVVAGLLLLTCCFCICKKCCCKKKKNKKEKGKGMKNAMNMKDMKGGQDDDDAETGLTEGEGEGEEEKEPENLGKLQFSLDYDFQANQLTVGVLQAAELPALDMGGTSDPYVKVFLLPDKKKKYETKVHRKTLNPAFNETFTFKVPYQELGGKTLVMAIYDFDRFSKHDIIGEVKVPMNTVDLGQPIEEWRDLQGGEKEEPEKLGDICTSLRYVPTAGKLTVCILEAKNLKKMDVGGLSDPYVKIHLMQNGKRLKKKKTTVKKKTLNPYFNESFSFEIPFEQIQKVQVVVTVLDYDKLGKNEAIGKIFVGSNATGTELRHWSDMLANPRRPIAQWHSLKPEEEVDALLGKNK [F54A]	disrupting interaction strength
